The experiment deals with recombinant human histone H3.1 (human, UniProt P68431 1-136). Nature of the experiment: pull-down.

B1: RAGE^124-341-His-FLAG (extracellular region of RAGE lacking the V domain) (domain or fragment)
chain: PEIVDSASELTAGVPNKVGTCVSEGSYPAGTLSWHLDGKPLVPNEKGVSVKEQTRRHPETGLFTLQSELMVTPARGGDPRPTFSCSFSPGLPRHRALRTAPIQPRVWEPVPLEEVQLVVEPEGGAVAPGGTVTLTCEVPAQPSPQIHWMKDGVPLPLPPSPVLILPEIGPQDQGTYSCVATHSSHGPQESRAVSISIIEPGEEGPTAGSVGGSGLGTL
As for B1, the binding result is reported as “binds”.

These data come from publication doi:10.1101/2024.09.03.610921 (bioRxiv, 2024).
